Test results as given in patent US12329806B2, “Compound for modulating rlr, tlr, oas and/or oncostatin m pathways, use thereof for preparing a medicine, composition, method for modulating said pathways and method of treatment” (Instituto Butantan, priority 2018, dated 2025).

Experiments:
SK-MEL-5 = assay: Cell viability tests (survival rate), previous experiment; type: cell-based; settings: rounded values
From the text: (§1) ER stress also promotes mitochondrial dysfunction, Cytochrome c release, PARP cleavage, Ca+^2 mobilization and caspase activation in SK-MEL-28 and Mia-PaCa-2 cells, positively regulating CASP3. The survival rate of the previous experiment, calculated using cell viability tests, is herein summarized: Mia-PaCa-2 67%, SK-MEL-28 44%, SK-MEL-5 42%, non-tumoral human fibroblasts 100% (rounded values). These numbers indicate that part of the cells possibly survives through a positive unfolded protein response (UPR) and part dies. […] Furthermore, autophagy could also be evoked to recover a global tissue homeostasis, and, in this case, there is the signature of immunogenic cell death (ICD). It is believed that the ICD could explain this.

[1] = tested on: non-tumoral human fibroblasts; assay: as above; type: cell-based; settings: rounded values
From the text: as §1

B1: Amblyomin-X: recombinant Kunitz type protein identified in a cDNA library of Amblyomma sculptum tick salivary glands (protein)
chain: MRQLAVLALVIFTGMCVESQSANSKAVCNLPKLAGDETCSNKTEIRWYYNGTACEAFIFKGCGGNDNNFDRVDDCQRLCEEQTHFHFESPKLICFKVQDYWILNDIMKKNLTGISLKSEEEDADSGEID
modifications: Amblyomin-X
notes: recombinant Kunitz type protein identified in a cDNA library of Amblyomma sculptum tick salivary glands
SK-MEL-5
  survival rate: 42%
[1]
  survival rate: 100%
